# According to US11879019B2, “Dual-enzyme responsive peptides” (THE REGENTS OF THE UNIVERSITY OF CALIFORNIA, priority 2016, dated 2024):
# Entries after “also recorded” stand apart in the source; their conditions may differ. Where two headings read alike, the source gives them in different places. Square brackets hold non-standard residues; d marks the D form. Side chains are listed from the residue outwards. Peptide text beside a SMILES is read from it. * marks the point of attachment. ξ: configuration not given here. X2 = CN(CCN*)C(=S)Oc1ccc2c3c1O[C@H]1C(=O)CC[C@@]4(O)[C@@H](C2)N(CC2CC2)CC[C@]314; X1 = CN(CCN*)C(=O)Oc1ccc2c3c1OC1C(=O)CCC4(O)C(C2)N(CC2CC2)CCC314; X3 = CC(=O)N[C@@H](CCCCN*)C(=O)Nc1ccc([N+](=O)[O-])cc1; X4 = CN(CCN*)C(=O)Oc1ccc([N+](=O)[O-])cc1; Trt = c1ccc(C(c2ccccc2)(c2ccccc2)*)cc1; pNA = O=[N+]([O-])c1ccc(N*)cc1; ξF = NC(Cc1ccccc1)C(=O)O; Boc = CC(C)(C)OC(=O)*; ξK = NCCCCC(N)C(=O)O; ξC = NC(CS)C(=O)O; ξA = CC(N)C(=O)O
# Assays:
# trypsin and chymotrypsin [1] = experiment: Trypsin + chymotrypsin assay (pNA release, absorbance at 405 nm); format: biochemical; conditions: for absorbance increase at 405 nm (pNA release): trypsin + chymotrypsin
# Method: Stock solutions of enzymes were prepared by dissolving trypsin (60 mg/ml) in 1 mM HCl and chymotrypsin (60 mg/ml) in pH 7.4 0.035M HEPES+0.1M NaCl. The peptide substrate, (Ac-AAF)K-pNA, was dissolved in DMSO to make a 1 mM stock solution.
# (§1) To wells in a 96-well plate, 87.5 μL pH 7.4 0.035M HEPES+0.1M NaCl and 2.5 μL peptide substrate were added. Absorbance was measured using a plate reader at 405 nm. Then, 5 μL trypsin and 5 μL chymotrypsin were added to the wells, and absorbance was measured at pre-determined time points. Absorbance values were subtracted from initial reading of only buffer and peptide. When testing only one enzyme, 5 μL buffer were added to keep total volume per well at 100 μL. All conditions prepared and measured in triplicate.
# as §1, with “Stock solutions of enzymes were prepared by dissolving trypsin (60 mg/ml) in 1 mM HCl and chymotrypsin (60 mg/ml) in pH 7.4 0.035M HEPES+0.1M NaCl. The peptide substrate, (Ac-AAF)K-pNA, was dissolved in DMSO to make a 1 mM stock solution. To” for “To”, “were” for “prepared and”
# caspase 3 and trypsin = experiment: Caspase 3 + trypsin assay (pNA release, absorbance at 405 nm); format: biochemical
# Method: (§2) Caspase 3 was taken directly from stock solution containing 1000 U/μL. A stock solution of trypsin was prepared by dissolving the enzyme (5 mg/ml) in 1 mM HCl. The peptide substrates were dissolved in DMSO to make 10 mM solutions. These were then diluted to 2.5 mM with pH 7.5 0.1 M HEPES containing 10 mM DTT, 2 mM EDTA, and 10% v/v glycerol. In a 96-well plate, 84 μL of buffer and 5 μL peptide were mixed together before measuring the absorbance at 405 nm to serve as a blank. 1 μL caspase-3 was added, and the plate was incubated at 23° C. for 12-24 hours and absorbance was measured again. Then, 5 μL trypsin were added to the well and absorbance measurements were taken at pre-determined time points. All conditions prepared and measured in triplicate. The same protocol was used for caspase 8 assays, adjusting peptide substrate concentration as needed.
# caspase 8 and trypsin = experiment: Caspase 8 + trypsin assay (pNA release, absorbance at 405 nm); format: biochemical; conditions: for cleavage by caspase 8 (absorbance increase): caspase 8 only, commercial single enzyme substrates
# Method: as §2
# papain and trypsin = experiment: Papain + trypsin assay (pNA release, absorbance at 405 nm); format: biochemical
# Method: Papain was reconstituted in deionized water at a concentration of 1 mg/ml. A stock solution of trypsin was prepared by dissolving the enzyme (10 mg/ml) in 1 mM HCl. The peptide substrate, (AcFG)K-pNA was dissolved in DMSO to make a 5 mM solution. Separately, 3M NaCl and 20 mM EDTA+50 mM cysteine (pH 6.2) solutions were prepared with deionized water. In a 96-well plate, 5 μL substrate were mixed with 45 μL NaCl and 40 μL EDTA+cysteine solutions. Absorbance was measured at 405 nm to serve as a blank. Then, 5 μL of both enzyme solutions were added, and absorbance measurements were taken at pre-determined time points. All conditions were prepared and measured in quadruplicate.
# [2] = for stability of the linker: over the entire pH range
# Method: The stabilities of these linkages were assessed by HPLC by monitoring the relative amount of Naltrexone versus the intact peptide-Naltrexone conjugate.
# trypsin and chymotrypsin [3] = experiment: pNA release assay of CAAK(F)-diamino-pNA; format: biochemical; conditions: 2 mM, trypsin and/or chymotrypsin, 90 minutes, 37° C.
# Method: A stock solution of the CAAK(F)-diamino-pNA (SEQ ID NO: 4) was prepared in dimethyl sulfoxide (DMSO) to produce a 16.0 mg/mL solution. A 7.5 mg/mL stock solution of the trypsin was prepared in 50 mM NH4HCO3 buffer (pH=8.05). A 7.5 mg/mL stock solution of chymotrypsin was prepared in 50 mM NH4HCO3 buffer (pH=8.05).
# A 96 well plate was used for monitoring the solutions at 405 nm using a plate reader. 20 μL of the peptide was combined with 62.0/66.6 μL of no enzyme, trypsin only, chymotrypsin only, or with both enzymes respectively. All solutions were diluted to a total volume of 200 μL using 50 mM NH4HCO3 (pH=8.05). Blanks were prepared by combining the enzymes with DMSO/buffer and their absorbances were subtracted from the cleavage conditions. Additionally, the residual signal from the peptide in the presence of no enzymes was also used as a blank and subtracted out from enzymatic conditions.
# [4] = 500 μM, caspase 8 for 24 hours before adding trypsin
molecule,measurement,setting,value
CC(=O)N[C@@H](C)C(=O)N[C@@H](C)C(=O)N[C@@H](Cc1ccccc1)C(=O)NCCCC[C@H](NC(C)=O)C(=O)Nc1ccc([N+](=O)[O-])cc1 [(AcAAF)K-pNA],change in absorbance at 405 nm,"trypsin and chymotrypsin [1]; 100 μM peptide, chymotrypsin only",no change in absorbance
same,absorbance increase at 405 nm,"trypsin and chymotrypsin [1]; 100 μM peptide, trypsin only",0.016±0.002 AU
same,absorbance increase at 405 nm (pNA release),trypsin and chymotrypsin [1]; 100 μM substrate,0.070±0.002 AU
same,absorbance increase at 405 nm (pNA release),trypsin and chymotrypsin [1]; 200 μM substrate,0.147±0.002 AU
same,absorbance increase at 405 nm (pNA release),trypsin and chymotrypsin [1]; after five hours,0.039±0.003 AU
CC(=O)N[C@@H](CCCCNC(=O)[C@H](CC(=O)O)NC(=O)[C@@H](NC(=O)[C@H](CCC(=O)O)NC(=O)[C@H](CC(=O)O)NC(C)=O)C(C)C)C(=O)Nc1ccc([N+](=O)[O-])cc1 [(AcDEVD)K-pNA],absorbance increase at 405 nm,"caspase 3 and trypsin; 125 μM substrate, first caspase-3 then trypsin, over 60 minutes",0.1±0.006 AU
same,pNA release relative to release from commercial substrate AcDEVD-pNA,caspase 3 and trypsin; caspase 3 digestion,83%
same,absorbance increase,caspase 3 and trypsin; trypsin or caspase 3 only,no absorbance increase
same,absorbance increase,caspase 8 and trypsin; [4],did not result in a significant absorbance increase
AcDEVD-pNA: commercially available single enzyme caspase substrate (SEQ ID NO: 7),cleavage by caspase 8 (absorbance increase),caspase 8 and trypsin,cleaved as expected; also recorded: significant absorbance increase over time
CC(=O)N[C@@H](Cc1ccccc1)C(=O)NCC(=O)NCCCC[C@H](NC(C)=O)C(=O)Nc1ccc([N+](=O)[O-])cc1 [(AcFG)K-pNA],absorbance increase,papain and trypsin; each enzyme separately (papain only or trypsin only),no absorbance increase
same,pNA release,"papain and trypsin; papain and trypsin, varying substrate concentrations",substrate dependent
CC(=O)NC(CS)C(=O)NC(C)C(=O)NC(C)C(=O)NC(CCCCNC(=O)C(N)Cc1ccccc1)C(=O)NCCN(C)C(=S)Oc1ccc2c3c1O[C@H]1C(=O)CC[C@@]4(O)[C@@H](C2)N(CC2CC2)CC[C@]314 (stereo partly shown) [NPT] (Ac-[ξC][ξA][ξA][ξK](ξF)-X2),"Percent Degradation, t = 0.5 hr",[2]; conjugate without pH buffer,0.51%
same,"Percent Degradation, t = 24 hr",[2]; conjugate without pH buffer,2.90%
same,stability of the linker,[2],more stable than the carbamate linker
same,"Percent Degradation, t = 0.5 hr",[2]; pH 2,3.23%
same,"Percent Degradation, t = 24 hr",[2]; pH 2,4.10%
same,"Percent Degradation, t = 0.5 hr",[2]; pH 4,1.67%
same,"Percent Degradation, t = 24 hr",[2]; pH 4,2.04%
same,"Percent Degradation, t = 0.5 hr",[2]; pH 7,3.22%
same,"Percent Degradation, t = 24 hr",[2]; pH 7,3.59%
same,"Percent Degradation, t = 0.5 hr",[2]; pH 9,4.69%
same,"Percent Degradation, t = 24 hr",[2]; pH 9,3.37%
same,"Percent Degradation, t = 0.5 hr",[2]; pH 12,5.15%
same,"Percent Degradation, t = 24 hr",[2]; pH 12,6.72%
CC[C@H](C)[C@H](NC(C)=O)C(=O)N[C@@H](CCC(=O)O)C(=O)N1CCC[C@H]1C(=O)N[C@@H](CC(=O)O)C(=O)NCCCC[C@H](NC(C)=O)C(=O)Nc1ccc([N+](=O)[O-])cc1 [(AcIEPD)K-pNA] (Ac-IEPD-X3),absorbance increase,caspase 8 and trypsin; [4],did not result in a significant absorbance increase
same,absorbance increase,"caspase 8 and trypsin; caspase 8 and trypsin, initial experiments",little to no absorbance increase
AcIEPD-pNA: commercially available single enzyme caspase substrate (SEQ ID NO: 8) (Ac-IEPD-pNA; SMILES CC[C@H](C)[C@H](NC(C)=O)C(=O)N[C@@H](CCC(=O)O)C(=O)N1CCC[C@H]1C(=O)N[C@@H](CC(=O)O)C(=O)Nc1ccc([N+](=O)[O-])cc1),cleavage by caspase 8 (absorbance increase),caspase 8 and trypsin,cleaved as expected; also recorded: significant absorbance increase over time
CC(=O)N[C@@H](CCCCNC(=O)[C@H](CC(=O)O)NC(=O)[C@H](CCC(=O)O)NC(=O)[C@@H](NC(=O)[C@H](CC(=O)O)NC(C)=O)C(C)C)C(=O)Nc1ccc([N+](=O)[O-])cc1 [(AcDVED)K-pNA] (Ac-DVED-X3),pNA release,caspase 3 and trypsin; trypsin and caspase 3,no pNA release
CC(=O)NC(CS)C(=O)NC(C)C(=O)NC(C)C(=O)NC(CCCCNC(=O)C(N)Cc1ccccc1)C(=O)NCCN(C)C(=O)Oc1ccc([N+](=O)[O-])cc1 (stereo not shown) [CAAK(F)-diamino-pNA] (Ac-CAAK(Phe)-X4; configuration not given here),theoretical pNA released,trypsin and chymotrypsin [3],55%
CC(=O)NC(CSC(c1ccccc1)(c1ccccc1)c1ccccc1)C(=O)NC(C)C(=O)NC(C)C(=O)NC(CCCCNC(=O)C(Cc1ccccc1)NC(=O)OC(C)(C)C)C(=O)NCCN(C)C(=O)Oc1ccc2c3c1OC1C(=O)CCC4(O)C(C2)N(CC2CC2)CCC314 (stereo not shown) [NPC] (Ac-C(Trt)AAK([Phe-Boc])-X1; configuration not given here),"Percent Degradation, t = 0.5 hr",[2]; conjugate without pH buffer,0%
same,"Percent Degradation, t = 24 hr",[2]; conjugate without pH buffer,0%
same,stability of the linker,[2],very good stability
same,"Percent Degradation, t = 0.5 hr",[2]; pH 2,6.00%
same,"Percent Degradation, t = 24 hr",[2]; pH 2,12.30%
same,"Percent Degradation, t = 0.5 hr",[2]; pH 4,3.50%
same,"Percent Degradation, t = 24 hr",[2]; pH 4,2.89%
same,"Percent Degradation, t = 0.5 hr",[2]; pH 7,1.50%
same,"Percent Degradation, t = 24 hr",[2]; pH 7,3.62%
same,"Percent Degradation, t = 0.5 hr",[2]; pH 9,5.56%
same,"Percent Degradation, t = 24 hr",[2]; pH 9,5.17%
same,"Percent Degradation, t = 0.5 hr",[2]; pH 12,7.03%
same,"Percent Degradation, t = 24 hr",[2]; pH 12,6.94%
